Assay results: patent US20200024330A1

Columns and labels:
Experiment in all cases: cell-based or functional assay
[1] = target: aMLV envelope (negative control pseudovirus)
[2] = target: HIV-1 Env of isolate JRFL (HIV-1)
[3] = target: HIV-1 Env of isolate MGRM-G-016 (clade G pseudovirus) (HIV-1)
[4] = target: HIV-1 Env of isolate MGRM-G-001 (HIV-1)
[5] = target: HIV-1 NL43 envelope glycoprotein (Env) on pseudovirus (HIV-1)
[6] = target: HIV-1 Env of isolate MGRM-Chronic-B-017 (HIV-1)
[7] = target: HIV-1 Env of isolate MGRM-Chronic-B-020 (HIV-1)
[8] = target: HIV-1 Env of isolate MGRM-AG-002 (HIV-1)
[9] = target: HIV-1 Env of isolate MGRM-AG-006 (HIV-1)
[10] = target: HIV-1 Env of isolate MGRM-AG-008 (HIV-1)
[11] = target: HIV-1 Env of isolate MGRM-AG-003 (HIV-1)
[12] = target: HIV-1 Env of isolate MGRM-AE-005 (HIV-1)
[13] = target: HIV-1 Env of isolate MGRM-AE-006 (HIV-1)
[14] = target: HIV-1 Env of isolate MGRM-AG-001 (HIV-1)
[15] = target: HIV-1 Env of isolate MGRM-AG-012 (HIV-1)
[16] = target: HIV-1 Env of isolate MGRM-AG-009 (HIV-1)
[17] = target: HIV-1 Env of isolate MGRM-G-004 (HIV-1)
[18] = target: HIV-1 Env of isolate MGRM-G-009 (HIV-1)
[19] = target: HIV-1 92UG024 envelope glycoprotein (Env) on pseudovirus (HIV-1)
[20] = target: HIV-1 Env of isolate MGRM-AG-005 (HIV-1)
[21] = target: HIV-1 Env of isolate MGRM-Chronic-B-018 (HIV-1)
[22] = target: HIV-1 Env of isolate MGRM-AE-004 (HIV-1)
[23] = target: HIV-1 Env of isolate MGRM-G-006 (HIV-1)
[24] = target: HIV-1 92RW020 envelope glycoprotein (Env) on pseudovirus (HIV-1)
[25] = target: HIV-1 92BR020 envelope glycoprotein (Env) on pseudovirus (HIV-1)
[26] = target: HIV-1 Env of isolate MGRM-Chronic-B-023 (HIV-1)
[27] = target: HIV-1 Env of isolate MGRM-Chronic-B-024 (HIV-1)
[28] = target: HIV-1 Env of isolate MGRM-AG-011 (HIV-1)
[29] = target: HIV-1 Env of isolate MGRM-D-021 (clade D) (HIV-1)
[30] = target: HIV-1 Env of isolate MGRM-Chronic-B-011 (HIV-1)
[31] = target: HIV-1 Env of isolate MGRM-AG-013 (HIV-1)
[32] = target: HIV-1 92TH021 envelope glycoprotein (Env) on pseudovirus (HIV-1)
[33] = target: HIV-1 Env of isolate MGRM-Chronic-B-012 (HIV-1)
[34] = target: HIV-1 Env of isolate MGRM-Chronic-B-010 (HIV-1)
[35] = target: HIV-1 Env of isolate MGRM-AE-008 (HIV-1)
[36] = target: HIV-1 Env of isolate MGRM-AE-007 (HIV-1)

1443_C16 (PG16) (TCN-116) (antibody), sequence (VH): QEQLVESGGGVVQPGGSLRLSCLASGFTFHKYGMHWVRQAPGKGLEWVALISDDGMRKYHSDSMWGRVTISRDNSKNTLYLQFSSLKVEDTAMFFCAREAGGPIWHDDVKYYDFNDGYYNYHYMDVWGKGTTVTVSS
1443_C16 (PG16) (TCN-116) (antibody), sequence (VL): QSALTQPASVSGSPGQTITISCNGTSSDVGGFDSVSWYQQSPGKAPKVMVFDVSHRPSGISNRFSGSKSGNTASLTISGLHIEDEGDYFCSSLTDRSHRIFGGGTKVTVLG

Substance	IC50 (µg/ml), pseudovirus neutralization [1] [µg/mL]	IC50 (µg/ml), pseudovirus neutralization [2] [µg/mL]	IC50 (µg/ml), pseudovirus neutralization [3] [µg/mL]	IC50 (µg/ml), pseudovirus neutralization [4] [µg/mL]	IC90 (pseudovirus neutralization) [5] [mg/L]	IC50 (µg/ml), pseudovirus neutralization [6] [µg/mL]	IC50 (µg/ml), pseudovirus neutralization [7] [µg/mL]	IC50 (µg/ml), pseudovirus neutralization [8] [µg/mL]	IC50 (µg/ml), pseudovirus neutralization [9] [µg/mL]	IC50 (µg/ml), pseudovirus neutralization [10] [µg/mL]	IC50 (µg/ml), pseudovirus neutralization [11] [µg/mL]	IC50 (µg/ml), pseudovirus neutralization [12] [µg/mL]	IC50 (µg/ml), pseudovirus neutralization [13] [µg/mL]	IC50 (µg/ml), pseudovirus neutralization [14] [µg/mL]	IC50 (µg/ml), pseudovirus neutralization [15] [µg/mL]	IC50 (µg/ml), pseudovirus neutralization [16] [µg/mL]	IC50 (µg/ml), pseudovirus neutralization [17] [µg/mL]	IC50 (µg/ml), pseudovirus neutralization [18] [µg/mL]	IC90 (pseudovirus neutralization) [19] [mg/L]	IC50 (µg/ml), pseudovirus neutralization [20] [µg/mL]	also measured
2G12 (antibody)	> 50	1.45	> 50	> 50	15.8	> 50	0.2	0.54	3.92	> 50	> 50	> 50	> 50	0.69	1.94	> 50	> 50	> 50	7.57	> 50	IC50 (µg/ml), pseudovirus neutralization [21]: > 50 µg/mL; IC50 (µg/ml), pseudovirus neutralization [22]: > 50 µg/mL; IC50 (µg/ml), pseudovirus neutralization [23]: > 50 µg/mL; IC90 (pseudovirus neutralization) [24]: 6.23 mg/L; IC90 (pseudovirus neutralization) [25]: 24.1 mg/L; IC50 (µg/ml), pseudovirus neutralization [26]: 0.16 µg/mL; IC50 (µg/ml), pseudovirus neutralization [27]: > 50 µg/mL; IC50 (µg/ml), pseudovirus neutralization [28]: > 50 µg/mL; IC50 (µg/ml), pseudovirus neutralization [29]: 23 µg/mL; IC50 (µg/ml), pseudovirus neutralization [30]: > 50 µg/mL; IC50 (µg/ml), pseudovirus neutralization [31]: 0.95 µg/mL; IC90 (pseudovirus neutralization) [32]: > 50 mg/L; IC50 (µg/ml), pseudovirus neutralization [33]: 0.22 µg/mL; IC50 (µg/ml), pseudovirus neutralization [34]: 1.5 µg/mL; IC50 (µg/ml), pseudovirus neutralization [35]: > 50 µg/mL; IC50 (µg/ml), pseudovirus neutralization [36]: > 50 µg/mL
4E10 (antibody)	> 50	18.9	1.02	2.04	29.6	2.77	2.45	0.8	1.76	1.48	0.64	0.47	0.23	1.12	0.86	31.4	1.47	1.34	23.7	2.13	IC50 (µg/ml), pseudovirus neutralization [21]: 23.2 µg/mL; IC50 (µg/ml), pseudovirus neutralization [22]: 1.27 µg/mL; IC50 (µg/ml), pseudovirus neutralization [23]: 1.23 µg/mL; IC90 (pseudovirus neutralization) [24]: 36.1 mg/L; IC90 (pseudovirus neutralization) [25]: > 50 mg/L; IC50 (µg/ml), pseudovirus neutralization [26]: 27.9 µg/mL; IC50 (µg/ml), pseudovirus neutralization [27]: 9.19 µg/mL; IC50 (µg/ml), pseudovirus neutralization [28]: 1.36 µg/mL; IC50 (µg/ml), pseudovirus neutralization [29]: 13.3 µg/mL; IC50 (µg/ml), pseudovirus neutralization [30]: 1.07 µg/mL; IC50 (µg/ml), pseudovirus neutralization [31]: 2.61 µg/mL; IC90 (pseudovirus neutralization) [32]: 23.5 mg/L; IC50 (µg/ml), pseudovirus neutralization [33]: 48 µg/mL; IC50 (µg/ml), pseudovirus neutralization [34]: 1.69 µg/mL; IC50 (µg/ml), pseudovirus neutralization [35]: 0.94 µg/mL; IC50 (µg/ml), pseudovirus neutralization [36]: 0.45 µg/mL
1443_C16 (PG16) (TCN-116) (antibody)	> 50	> 50	11.3	0.15	> 50	0.02	> 50	0.03	> 50	0.002	> 50	0.02	0.03	0.03	25.1	> 50	> 50	> 50	> 50	> 50	IC50 (µg/ml), pseudovirus neutralization [21]: 0.7 µg/mL; IC50 (µg/ml), pseudovirus neutralization [22]: 0.002 µg/mL; IC50 (µg/ml), pseudovirus neutralization [23]: 2.42 µg/mL; IC90 (pseudovirus neutralization) [24]: > 50 mg/L; IC90 (pseudovirus neutralization) [25]: > 50 mg/L; IC50 (µg/ml), pseudovirus neutralization [26]: 0.13 µg/mL; IC50 (µg/ml), pseudovirus neutralization [27]: 0.01 µg/mL; IC50 (µg/ml), pseudovirus neutralization [28]: 0.002 µg/mL; IC50 (µg/ml), pseudovirus neutralization [29]: > 50 µg/mL; IC50 (µg/ml), pseudovirus neutralization [30]: > 50 µg/mL; IC50 (µg/ml), pseudovirus neutralization [31]: 0.31 µg/mL; IC90 (pseudovirus neutralization) [32]: 23.4 mg/L; IC50 (µg/ml), pseudovirus neutralization [33]: 3.74 µg/mL; IC50 (µg/ml), pseudovirus neutralization [34]: 0.01 µg/mL; IC50 (µg/ml), pseudovirus neutralization [35]: 3.25 µg/mL; IC50 (µg/ml), pseudovirus neutralization [36]: 0.04 µg/mL
b12 (antibody)	> 50	0.02	> 50	> 50	0.28	2.59	6.16	0.89	> 50	> 50	> 50	0.63	> 50	11.9	10.4	> 50	> 50	> 50	> 50	> 50	IC50 (µg/ml), pseudovirus neutralization [21]: 0.66 µg/mL; IC50 (µg/ml), pseudovirus neutralization [22]: > 50 µg/mL; IC50 (µg/ml), pseudovirus neutralization [23]: > 50 µg/mL; IC90 (pseudovirus neutralization) [24]: > 50 mg/L; IC90 (pseudovirus neutralization) [25]: > 50 mg/L; IC50 (µg/ml), pseudovirus neutralization [26]: > 50 µg/mL; IC50 (µg/ml), pseudovirus neutralization [27]: > 50 µg/mL; IC50 (µg/ml), pseudovirus neutralization [28]: > 50 µg/mL; IC50 (µg/ml), pseudovirus neutralization [29]: 5.23 µg/mL; IC50 (µg/ml), pseudovirus neutralization [30]: 2.11 µg/mL; IC50 (µg/ml), pseudovirus neutralization [31]: > 50 µg/mL; IC90 (pseudovirus neutralization) [32]: > 50 mg/L; IC50 (µg/ml), pseudovirus neutralization [33]: > 50 µg/mL; IC50 (µg/ml), pseudovirus neutralization [34]: > 50 µg/mL; IC50 (µg/ml), pseudovirus neutralization [35]: > 50 µg/mL; IC50 (µg/ml), pseudovirus neutralization [36]: > 50 µg/mL
